Among the data in US20220064233A1 are fold reduction in 61D8 binding (against 14R1) values, retold here.

In this assay the target is 14R1 revertant mutant E. As to the kind of experiment: ELISA, epitope mapping.

B1: monoclonal antibody 61D8 (IgG) (antibody, V domains shown)
VH: CKASGYSFTSYWMHWVKQRPGQGLEWIGMIDPSDSETKLNQQFKDKATLTVDTSSSTAYMQLTSPTSEDSVVYYCARGKMGGRFYFDYLGQGTTLTVSS
VL: ITCKASQDVGTAVVWYQQKPGQSPKLLIYWASTRHTGVPDRFTGSGFGTDFTLTISNVQSEDLADYFCQQFSSYPYTFGGGTKLEIKR
With B1, the fold reduction in 61D8 binding (against 14R1) stood at 30 fold.
